# Where a chain is given by its changes, count along the chain named. Names and notes keep the numbering of the source.
# B1: ALX07xh-05 (direct CDR-grafted humanized ALX07) (antibody, V domains shown)
# VH: QVTLKESGPALVKPTQTLTLTCTFSGFSLSTSALGVGWIRQPPGKALEWLAHIWWNDVKRSNPALKGRLTISKDTSKNQVVLTMTNMDPVDTATYYCARSYGNHWYFDVWGQGTLVTVSS
# VL: DIVMTQSPDSLAVSLGERATINCKASQSVSNDVAWYQQKPGQPPKLLIYYAFTRYIGVPDRFSGSGSGTDFTLTISSLQAEDVAVYYCQQDYISPYTFGQGTKLEIK
# B2: humanized ALX07 (CDR graft) with the S67Y back mutation in the light chain alone (antibody, V domains shown)
# VH: B1 VH
# VL: B1 VL with S67Y
# B3: chimeric ALX07 (murine ALX07 variable regions, IgG4 chimeric antibody) (antibody, V domains shown)
# VH: QVTLKESGPGILQPSQTLSLTCSFSGFSLSTSALGVGWIRQPPGKGLVWLAHIWWNDVKRSNPALKGRLTISKDTSSSQVFLNIANVDTADTATYYCARSYGNHWYFDVWGAGTTVTVSS
# VL: SVVMTQTPKFLLVSAGDRVTIACKASQSVSNDVAWFQQKPGQSPKLLIYYAFTRYIGVPDRFTASGYGTDFTFTISTVQAEDLAIYFCQQDYISPYTFGGGTKLEIK
# Target: extracellular domain of human PD-1 (Programmed cell death protein 1) (Homo sapiens, UniProt Q15116)
# Assay: SPR
# extracellular domain of human PD-1 (Programmed cell death protein 1), sequence (Q15116 25-170): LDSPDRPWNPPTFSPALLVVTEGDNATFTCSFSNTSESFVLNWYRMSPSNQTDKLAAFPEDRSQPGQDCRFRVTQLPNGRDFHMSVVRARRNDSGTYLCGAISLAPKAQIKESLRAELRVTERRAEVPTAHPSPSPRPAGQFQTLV
row,Binder,Kd [nM]
1,B1,140
2,B2,2.01
3,B3,1.31

# — article doi:10.1101/2025.03.09.641110 (bioRxiv, 2025)
